From patent US8809287B2, “Compositions and methods for altering Wnt autocrine signaling” (Icahn School of Medicine at Mount Sinai, priority 2004, dated 2014)
Entries after “also recorded” stand apart in the source; their conditions may differ.

B1: FRP1: human secreted Frizzled Related Protein 1, Wnt antagonist; expressed from pBabe-derived retrovirus with carboxy-terminal HA tag (protein, UniProt Q8N474 32-314, looked up)
Secreted frizzled-related …: SEYDYVSFQSDIGPYQSGRFYTKPPQCVDIPADLRLCHNVGYKKMVLPNLLEHETMAEVKQQASSWVPLLNKNCHAGTQVFLCSLFAPVCLDRPIYPCRWLCEAVRDSCEPVMQFFGFYWPEMLKCDKFPEGDVCIAMTPPNATEASKPQGTTVCPPCDNELKSEAIIEHLCASEFALRMKIKEVKKENGDKKIVPKKKKPLKLGPIKKKDLKKLVLYLKNGADCPCHQLDNLSHHFLIMGRKVKSQYLLTAIHKWDKKNKEFKNFMKKMKNHECPTFQSVFK
modifications: C-terminal HA tag
notes: human secreted Frizzled Related Protein 1, Wnt antagonist; expressed from pBabe-derived retrovirus with carboxy-terminal HA tag
B2: DKK1: Dickkopf-1, secreted Wnt antagonist protein that binds Wnt co-receptor LRP6; used purified, in conditioned media or retrovirally expressed with HA tag (protein, UniProt O94907 32-266, looked up)
Dickkopf-related protein 1: TLNSVLNSNAIKNLPPPLGGAAGHPGSAVSAAPGILYPGGNKYQTIDNYQPYPCAEDEECGTDEYCASPTRGGDAGVQICLACRKRRKRCMRHAMCCPGNYCKNGICVSSDQNHFRGEIEETITESFGNDHSTLDGYSRRTTLSSKMYHTKGQEGSVCLRSSDCASGLCCARHFWSKICKPVLKEGQVCTKHRRKGSHGLEIFQRCYCGEGLSCRIQKDHHQASNSSRLHTCQRH
modifications: HA tag in some uses

Columns and labels:
Type in all cases: cell-based, human
[1] = test system: uncomplexed β-catenin; test: Uncomplexed β-catenin in MDAMB157 breast tumor cells; parameters: levels of uncomplexed β-catenin: dose or concentration left out as unconfirmed; details: for uncomplexed β-catenin levels: stable expression by retroviral mediated transduction
Procedure: (§1) β-catenin levels were assessed using the GST-E-cadherin binding assay, which has been previously described (Bafico et al., (1998) Oncogene 16:2819-2825). Briefly, bacterially expressed GST-E-cadherin was purified with glutathione-Sepharose beads and incubated with 1 mg of each cell lysate. The GST-E-cadherin/[…]-catenin complex bound to the beads was recovered by centrifugation and analyzed by SDS-PAGE followed by immunoblotting. The uncomplexed β-catenin was detected using a monoclonal antibody to β-catenin (Transduction Laboratories). Unphosphorylated β-catenin was detected with a monoclonal antibody specific for β-catenin dephosphorylated at residues 27-37 (Alexis, Läufelfingen, Switzerland). FRP1-HA and DKK1-HA were detected with an anti-HA monoclonal antibody (Hybridoma Center, Mount Sinai School of Medicine, New York).
MDAMB157 cell cultures were exposed to increasing concentrations of purified DKK1, and then were solubilized and analyzed for uncomplexed β-catenin using immunoblot analysis and an anti-[…]-catenin antibody as described in Example 3.
MDAMB157 cells were infected with vector alone, FRP1-HA (described in Example 1), or DKK1-HA (described in Example 1) retroviruses and marker selected. Uncomplexed β-catenin protein levels were analyzed using immunoblot analysis with an anti-β-catenin antibody as described in Example 3. Expression of FRP1-HA or DKK1-HA were assessed by immunblot analysis of lysates using an anti-HA monoclonal antibody (Hybridoma Center, Mount Sinai School of Medicine, New York).

[2] = test system: MDAMB157 cells; test: Saturation density (cell counts) of MDAMB157 cells; details: MDAMB157 over-expressing antagonist vs vector transduced parental cells
Procedure: MDAMB157 cells exogenously expressing either vector control, FRP1 or DKK I were transferred at 1.5×10^5 cells per well in 6-well plates. Cell counts were performed in duplicate at the indicated times, and values represent the mean of two independent experiments.

[3] = test system: AB589; test: Saturation density of AB589 cells; details: AB589 infected with retrovirus (data not shown)
[4] = test system: MDAMB157 cells; test: tBh-induced apoptosis (Annexin/PI FACS) in MDAMB157 cells; details: each concentration of tBh, over-expression vs vector
Procedure: (§2) To assess the effects of Wnt inhibition by FRP1 or DKK1 on the response of MDAMB157 cells to apoptotic stimuli, we exposed AB589 or MDAMB157 cells expressing either vector control, FRP1 or DKK1 to increasing concentrations of tert-butyl hydroperoxide (tBh) (Sigma) a known inducer of oxidative stress that causes DNA damage through reactive oxygen species (ROS) (Macip et al., (2003) Mol. Cell. Biol. 23:8576-8585), and analyzed the apoptotic response. Sub-confluent cultures were treated with increasing amounts of tert-butyl hydroperoxide (tBH) for 2 hours. Twenty-four hours later, cells were washed in PBS, trypsinized and incubated with Annexin and PI using the Annexin-V-Fluos Staining kit (Roche). Fluorescent stained cells were subjected to FACS (Beckton Dickinson FACScan) using Cell Quest 3.2 software (Beckton Dickinson) for acquisition and analysis.

[5] = test system: H1355; test: tBh-induced apoptosis in H1355 NSCLC cells; details: H1355 NSCLC cells (data not shown)
Procedure: as §2
We have also tested the effects of tBh on lung tumor cells with autocrine Wnt signaling in the presence or absence of the Wnt antagonists FRP and DKK. […] These findings indicate that inhibition of a Wnt autocrine signaling mechanism in tumor cells by Wnt antagonists such as FRP or DKK would make them more sensitive to the killing effects of standard chemo or irradiation therapies. We noted that levels of expression of these antagonists decreased with passage of the transfected and marker selected tumor cells.

[6] = test system: AB589 cells; test: tBh-induced apoptosis (Annexin/PI FACS) in AB589 cells
Procedure: as §2

[7] = test system: LEF-1; test: Northern blot of LEF-1 in MDAMB157 cells; details: stable expression
Procedure: (§3) Alterations in the expression of a number of genes identified as targets of canonical Wnt signaling have been reported, although it should be noted that there is variability among Wnt target genes in different cell systems (Giles et al., (2003). Biochim. Biophys. Acta 1653:1-24). To investigate the effects of FRP1 and DKK1 inhibition on gene expression in MDAMB157 breast tumor cells, Northern blot analysis was performed on representative Wnt transcriptional targets, including Myc (He et al., (1998) Science 281:1509-1512), the LEF-1 transcription factor (Filali et al., (2002) J. Biol. Chem. 277:33398-33410) and the dominant negative helix-loop-helix transcriptional regulator, Id2 (Rockman et al., (2001) J. Biol. Chem. 276:45113-45119).
(§4) Total RNAs from MDAMB157 cells exogenously expressing vector alone, FRP1, or DKK1 were extracted using Triazol (Invitrogen), separated by agarose gel electrophoresis (1% agarose gel) and transferred to a nylon membrane (Hybond, Pharmacia). Probes were labeled by the Random Prime Labelling System method (Amersham Biosciences), and hybridization was performed overnight utilizing the Hybrisol I solution (Serologicals Corporation) according to the manufacturer's instructions. Normalization was performed utilizing a commercial human GADPH control probe (BD Biosciences Clontech). Probes were labelled with α-^32P-dCTP.

[8] = test system: ID2; test: Northern blot of ID2 in MDAMB157 cells; details: stable expression
Procedure: as §3, §4

[9] = test system: MYC; test: Northern blot of MYC in MDAMB157 cells; details: stable expression
Procedure: as §3, §4

[10] = test system: keratin 8; test: RNA blot of keratin 8 in MDAMB157 cells; details: stable expression
Procedure: as §4
(§5) Since canonical Wnt signaling appears to be involved in maintaining epithelial progenitor cells of several tissues (van de Wetering et al. (2002) Cell 111:241-250; Alonso and Fuchs (2003) Genes Dev. 17:1189-1200; Reya et al. (2003) Nature 423:409-414; Polesskaya et al. (2003) Cell 113, 841-852), including the mouse mammary gland (Li et al. (2003) Proc Natl Acad Sci U.S.A. 100:15853-15858; Liu et al. (2004) Proc. Nat'l Acad. Sci. U.S.A. 101:4158-4163), we also investigated whether downregulation of Wnt signaling in MDAMB157 tumor cells affected their differentiated state. […] All of these findings provide evidence for a Wnt autocrine transforming mechanism in human tumor cells.

[11] = test system: keratin 18; test: RNA blot of keratin 18 in MDAMB157 cells; details: stable expression
Procedure: as §4, §5

[12] = test system: uncomplexed β-catenin; test: Uncomplexed β-catenin in Wnt autocrine tumor cells (summary statements); details: summary of the Examples
Procedure: as §1

Molecule | uncomplexed β-catenin levels [1] | saturation density [2] | saturation density [3] | level of apoptosis [4] | sensitivity to induction of apoptosis by tBh [5] | apoptotic responses compared to the vector infected cells [6] | expression of LEF-1 [7] | expression of ID2 [8] | expression of MYC [9] | expression of keratin 8 [10] | keratin 18 levels [11] | up regulated uncomplexed β-catenin levels [12] | levels of uncomplexed β-catenin ([1]; increasing concentrations of purified DKK1)
B1 | dramatic reduction | decreased saturation density | no detectable effect | statistically significant increase | more sensitive to induction of apoptosis | no detectable differences | reduced | reduced | reduced | striking increase | increase | down regulation | 
B2 | dramatic reduction | decreased saturation density | no detectable effect | statistically significant increase | more sensitive to induction of apoptosis | no detectable differences | reduced | reduced | reduced | striking increase | increase | down regulation; also recorded: striking reduction | dose dependent, marked reduction
